According to patent publication US20240018502A1:
Numbering of substitutions follows the chain as printed. Names may count otherwise. Blank lines part the entries; values can stand above or below the binder they belong to.

Molecular target: plasma purified human complement protein C3 (human) (UniProt P01024)
Assay: cell-based or functional assay

Sequence of plasma purified human complement protein C3 (human) (P01024 23-667, chain 1 of 2): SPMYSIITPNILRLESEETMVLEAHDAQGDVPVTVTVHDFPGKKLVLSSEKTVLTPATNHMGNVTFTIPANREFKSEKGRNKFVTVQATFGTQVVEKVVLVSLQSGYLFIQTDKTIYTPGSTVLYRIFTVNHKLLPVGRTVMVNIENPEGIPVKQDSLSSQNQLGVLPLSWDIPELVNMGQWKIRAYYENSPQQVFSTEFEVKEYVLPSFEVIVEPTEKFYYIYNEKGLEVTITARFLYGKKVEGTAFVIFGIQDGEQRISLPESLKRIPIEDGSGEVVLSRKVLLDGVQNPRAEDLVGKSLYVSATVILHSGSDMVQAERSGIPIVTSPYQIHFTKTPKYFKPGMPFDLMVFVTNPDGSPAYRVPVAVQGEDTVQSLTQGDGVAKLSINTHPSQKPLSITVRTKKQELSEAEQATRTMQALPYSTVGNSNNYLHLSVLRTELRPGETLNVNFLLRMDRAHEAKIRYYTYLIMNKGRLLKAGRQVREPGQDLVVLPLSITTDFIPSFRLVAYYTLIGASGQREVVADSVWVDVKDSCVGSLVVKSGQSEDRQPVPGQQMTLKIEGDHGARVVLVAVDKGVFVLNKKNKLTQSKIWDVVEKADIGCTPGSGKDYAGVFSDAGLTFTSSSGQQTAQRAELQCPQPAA
Sequence of plasma purified human complement protein C3 (human) (P01024 672-1663, chain 2 of 2): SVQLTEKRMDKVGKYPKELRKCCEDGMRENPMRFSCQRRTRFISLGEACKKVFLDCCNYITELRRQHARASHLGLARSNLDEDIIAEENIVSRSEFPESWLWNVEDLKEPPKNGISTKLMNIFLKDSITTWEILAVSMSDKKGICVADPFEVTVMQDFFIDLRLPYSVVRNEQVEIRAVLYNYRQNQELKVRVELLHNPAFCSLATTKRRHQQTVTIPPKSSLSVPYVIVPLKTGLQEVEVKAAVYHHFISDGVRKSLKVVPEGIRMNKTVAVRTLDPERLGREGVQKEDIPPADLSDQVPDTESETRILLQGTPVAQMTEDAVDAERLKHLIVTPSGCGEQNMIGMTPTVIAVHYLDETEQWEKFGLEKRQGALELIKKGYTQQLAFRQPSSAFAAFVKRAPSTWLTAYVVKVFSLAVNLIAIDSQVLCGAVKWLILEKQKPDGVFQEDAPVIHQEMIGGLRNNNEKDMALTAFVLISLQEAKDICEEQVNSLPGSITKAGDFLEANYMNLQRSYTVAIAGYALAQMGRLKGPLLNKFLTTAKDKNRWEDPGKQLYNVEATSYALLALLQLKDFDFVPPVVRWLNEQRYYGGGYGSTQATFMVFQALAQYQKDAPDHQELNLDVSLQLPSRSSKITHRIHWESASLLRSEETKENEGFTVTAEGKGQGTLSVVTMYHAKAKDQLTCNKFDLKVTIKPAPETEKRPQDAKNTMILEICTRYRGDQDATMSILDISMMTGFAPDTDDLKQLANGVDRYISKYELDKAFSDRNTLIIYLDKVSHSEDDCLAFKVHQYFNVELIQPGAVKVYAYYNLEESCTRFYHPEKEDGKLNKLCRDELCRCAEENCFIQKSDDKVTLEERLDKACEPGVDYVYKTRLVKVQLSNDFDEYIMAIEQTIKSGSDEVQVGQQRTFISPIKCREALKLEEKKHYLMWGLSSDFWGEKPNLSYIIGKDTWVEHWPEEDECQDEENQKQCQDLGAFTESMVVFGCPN

- EC50 hC3 cleavage: 17.6 nM
B2: MTSP-1 protease domain I41A/Y60gW/F99L/C122S/Q175T/Q192A (enzyme)
chain: VVGGTDADEGEWPWQVSLHALGQGHACGASLISPNWLVSAAHCYIDDRGFRWSDPTQWTAFLGLHDQSQRSAPGVQERRLKRIISHPFFNDFTLDYDIALLELEKPAEYSSMVRPISLPDASHVFPAGKAIWVTGWGHTQYGGTGALILQKGEIRVINQTTCENLLPQTITPRMMCVGFLSGGVDSCAGDSGGPLSSVEADGRIFQAGVVSWGDGCAQRNKPGVYTRLPLFRDWIKENTGV

- EC50 hC3 cleavage: 27 nM
B5: MTSP-1 protease domain I41A/F97W/T98S/F99L/C122S/Q192A (enzyme)
chain: B2 chain with W52Y, F92W, T93S, T169Q

- EC50 hC3 cleavage: 17.5 nM
B9: MTSP-1 protease domain I41A/Y60gW/N95D/D96F/F97G/F99L/C122S/Q175H/Q192A (enzyme)
chain: B2 chain with N90D, D91F, F92G, T169H

- EC50 hC3 cleavage: 54.1 nM
B12: MTSP-1 protease domain Q38H/I41T/D96R/ins97aG/C122S/G151S (enzyme)
chain: VVGGTDADEGEWPWQVSLHALGHGHTCGASLISPNWLVSAAHCYIDDRGFRYSDPTQWTAFLGLHDQSQRSAPGVQERRLKRIISHPFFNRFGTFDYDIALLELEKPAEYSSMVRPISLPDASHVFPAGKAIWVTGWGHTQYGGTSALILQKGEIRVINQTTCENLLPQQITPRMMCVGFLSGGVDSCQGDSGGPLSSVEADGRIFQAGVVSWGDGCAQRNKPGVYTRLPLFRDWIKENTGV

- EC50 hC3 cleavage: 18.1 nM
B14: MTSP-1 protease domain I41A/F97G/ins97aV/T98E/C122S (enzyme)
chain: B12 chain with H23Q, T26A, R91D, F92G, G93V, T94E, S146G

- EC50 hC3 cleavage: 16.6 nM
B16: MTSP-1 protease domain I41S/Y59F/ins97aV/C122S/Q192A (enzyme)
chain: B12 chain with H23Q, T26S, Y44F, R91D, G93V, S146G, Q189A

- EC50 of hC3 cleavage: 5.25 nM
B23: MTSP-1 Q38H/I41S/D60bT/F60eS/Y60gW/D96K/F97G/ins97aV/T98P/F99L/C122S/Q175L/Q192D (enzyme)
chain: VVGGTDADEGEWPWQVSLHALGHGHSCGASLISPNWLVSAAHCYIDTRGSRWSDPTQWTAFLGLHDQSQRSAPGVQERRLKRIISHPFFNKGVPLDYDIALLELEKPAEYSSMVRPISLPDASHVFPAGKAIWVTGWGHTQYGGTGALILQKGEIRVINQTTCENLLPQLITPRMMCVGFLSGGVDSCDGDSGGPLSSVEADGRIFQAGVVSWGDGCAQRNKPGVYTRLPLFRDWIKENTGV

More lines, now with the values behind:

B1: MTSP-1 protease domain I41G/F97E/F99L/C122S/Q192A (enzyme)
chain: B2 chain with A26G, W52Y, F92E, T169Q
- EC50 hC3 cleavage: 30.1 nM

B3: MTSP-1 protease domain I41L/N95D/D96T/F97W/F99L/C122S/Q192A (enzyme)
chain: B2 chain with A26L, W52Y, N90D, D91T, F92W, T169Q
- EC50 hC3 cleavage: 62.6 nM

B4: MTSP-1 protease domain I41S/F97Q/F99L/C122S/Q192S (enzyme)
chain: B2 chain with A26S, W52Y, F92Q, T169Q, A188S
- EC50 hC3 cleavage: 53.5 nM

B6: MTSP-1 protease domain I41G/F97L/F99L/C122S/Q192S (enzyme)
chain: B2 chain with A26G, W52Y, F92L, T169Q, A188S
- EC50 hC3 cleavage: 41.4 nM

B7: MTSP-1 protease domain I41T/Y60gL/N95D/D96F/F97S/F99L/C122S/Q175S/Q192A (enzyme)
chain: B2 chain with A26T, W52L, N90D, D91F, F92S, T169S
- EC50 hC3 cleavage: 247 nM

B8: MTSP-1 protease domain I41S/T98S/F99L/C122S/Q192A (enzyme)
chain: B2 chain with A26S, W52Y, T93S, T169Q
- EC50 hC3 cleavage: 17.4 nM

B10: MTSP-1 protease domain Q38H/I41S/ins97aV/A112V/C122S/Q192A/Q209L (enzyme)
chain: B12 chain with T26S, R91D, G93V, A108V, S146G, Q189A, Q207L
- EC50 hC3 cleavage: 10.9 nM

B11: MTSP-1 protease domain I41S/Y59F/D60bY/ins97aV/C122S/Q192G (enzyme)
chain: B12 chain with H23Q, T26S, Y44F, D47Y, R91D, G93V, S146G, Q189G
- EC50 hC3 cleavage: 5.24 nM

B13: MTSP-1 protease domain I41A/F97G/ins97aM/T98L/C122S (enzyme)
chain: B12 chain with H23Q, T26A, R91D, F92G, G93M, T94L, S146G
- EC50 hC3 cleavage: 40.1 nM

B15: MTSP-1 protease domain Q38M/I41T/D96M/ins97aH/C122S/G151E (enzyme)
chain: B12 chain with H23M, R91M, G93H, S146E
- EC50 hC3 cleavage: 19.1 nM

B17: MTSP-1 protease domain I41S/D60bY/ins97aV/T98N/C122S/Q192H (enzyme)
chain: B12 chain with H23Q, T26S, D47Y, R91D, G93V, T94N, S146G, Q189H
- EC50 hC3 cleavage: 8.1 nM

B18: MTSP-1 protease domain I41A/F97S/ins97aA/C122S (enzyme)
chain: B12 chain with H23Q, T26A, R91D, F92S, G93A, S146G
- EC50 hC3 cleavage: 19.8 nM

B19: MTSP-1 protease domain I41S/ins97aV/C122S/Q192V/D217V (enzyme)
chain: B12 chain with H23Q, T26S, R91D, G93V, S146G, Q189V, D215V
- EC50 hC3 cleavage: 11 nM

B20: MTSP-1 protease domain I41S/F97V/ins97aV/T98P/C122S (enzyme)
chain: B12 chain with H23Q, T26S, R91D, F92V, G93V, T94P, S146G
- EC50 hC3 cleavage: 30.9 nM

B21: MTSP-1 protease domain I41S/F97G/ins97aA/T98P/C122S/Q192A (enzyme)
chain: B12 chain with H23Q, T26S, R91D, F92G, G93A, T94P, S146G, Q189A
- EC50 hC3 cleavage: 57.2 nM

B22: MTSP-1 Q38H/I41S/D60bT/F60eS/Y60gW/D96K/F97G/ins97aV/T98P/C122S/G151H/Q175L/Q192D (enzyme)
chain: B23 chain with L95F, G146H
- EC50 of hC3 cleavage: 18.3 nM
